The source of these data is the RNAGym collection of RNA variant scans (doi:10.7554/elife.80360).

B1: HDV Ribozyme (parent)
chain: GGCCGGCAUGGUCCCAGCCUCCUCGCUGGCGCCGGCUGGGCAACAUUCCGAGGGGACCGUCCCCUCGGUAAUGGCGAAUGGGACCCA

The variants in the series derive from B1. Put plainly: self-cleavage, relative activity (ratio to wild type); higher = more cleavage; co-transcriptional.
On to GGCCUGCAUGGUCCCAGCCUCCUCGCUGGCGCCGGCUGGGCAACAUUGCGAGGGGACCGUCCCCUCGGUAAUGGCGAAUGGGACCCA [G5U C48G], for which the self-cleavage amounted to 0.554.

For the variant GGCCUGCAUGGUCCCAGCCUCCUCGCUGGCGCCGGCCGGGCAACAUUCCGAGGGGACCGUCCCCUCGGUAAUGGCGAAUGGGACCCA [G5U U37C], the self-cleavage was 0.519.

For GGCCUGCAUGGUCCCAGCCUCCUCGCUGGCGCCGGCGGGGCAACAUUCCGAGGGGACCGUCCCCUCGGUAAUGGCGAAUGGGACCCA [G5U U37G], the self-cleavage is 0.0755.

As for GGCCUGCAUGGUCCCAGCCUCCUCGCUGGCGCCCGCUGGGCAACAUUCCGAGGGGACCGUCCCCUCGGUAAUGGCGAAUGGGACCCA [G5U G34C], the self-cleavage worked out at 0.

On to GGCCUGCAUGGUCCCAGCCUCCUCGCUGGCGCCGGCUCGGCAACAUUCCGAGGGGACCGUCCCCUCGGUAAUGGCGAAUGGGACCCA [G5U G38C], for which the self-cleavage came out at 0.0875.

For the variant GGCCUGCAUGGUCCCAGCCUCCUCGCUGGCGCCGGCUGGGCAACAUUCCGAGGGGACCGUUCCCUCGGUAAUGGCGAAUGGGACCCA [G5U C61U], the self-cleavage stood at 0.399.

For GGCCUGCAUGGUCCCAGCCUCCUCGCUGGCGCCGGCUGGGCAACAUUCCGAGGGGACCGUCCCCUCGGUAAUGGAGAAUGGGACCCA [G5U C75A], the self-cleavage was 0.101.

Turning to GGCCUGCAUGGUCCCAGCCUCCUCGCUGGCGCCGGCUGGGCAACAUUCCGAGGGGACCGUCCCCUCGGUAAUGGGGAAUGGGACCCA [G5U C75G], the self-cleavage amounted to 0.246.

Turning to GGCCUGCAUGGUCCCAGCCUCCUCGCUGGCGCCGGCUGGGCAACAUUCGGAGGGGACCGUCCCCUCGGUAAUGGCGAAUGGGACCCA [G5U C49G], the self-cleavage is 0.0831.

For the variant GGCCUGCAUGGUCCCAGCCUCCGCGCUGGCGCCGGCUGGGCAACAUUCCGAGGGGACCGUCCCCUCGGUAAUGGCGAAUGGGACCCA [G5U U23G], the self-cleavage was 0.

As for GGCCUGCAUGGUCCCAGCCUCCACGCUGGCGCCGGCUGGGCAACAUUCCGAGGGGACCGUCCCCUCGGUAAUGGCGAAUGGGACCCA [G5U U23A], the self-cleavage came to 0.578.

For the variant GGCCUGCAUGGUCCCAGCCUCCUCGCUGGCGCCGGCUGGGCAACAUUCCGAGGGGACCGUCCCCUCGUUAAUGGCGAAUGGGACCCA [G5U G68U], the self-cleavage was found to be 0.268.

For the variant GGCCUGCAUGGUCCCAGCCUCCUCGCUGGCGCCGGCUGGGCAACAUUCCGAGGGGACCGUCCCCUCGAUAAUGGCGAAUGGGACCCA [G5U G68A], the self-cleavage stood at 0.697.

With GGCCUGCAUGGUCCCAGCCUCCUCGCUGGCGCCGGCUGGGAAACAUUCCGAGGGGACCGUCCCCUCGGUAAUGGCGAAUGGGACCCA [G5U C41A], the self-cleavage turned out to be 0.172.

GGCCUGCAUGGUCCCAGCCUCCUCGCCGGCGCCGGCUGGGCAACAUUCCGAGGGGACCGUCCCCUCGGUAAUGGCGAAUGGGACCCA [G5U U27C]: the self-cleavage was determined as 0.0978.

On to GGCCUGCAUGGUCCCACCCUCCUCGCUGGCGCCGGCUGGGCAACAUUCCGAGGGGACCGUCCCCUCGGUAAUGGCGAAUGGGACCCA [G5U G17C], for which the self-cleavage was found to be 0.

Turning to GGCCUGCAUGGUCCCAACCUCCUCGCUGGCGCCGGCUGGGCAACAUUCCGAGGGGACCGUCCCCUCGGUAAUGGCGAAUGGGACCCA [G5U G17A], the self-cleavage was determined as 0.189.

As for GGCCUGCAUGGUCCCAGCCUCCUCGCUGGCGCCGGCUGGGCAACAUUCCGAGGGGACCGUCCCCUCGGUAAUGGCGAAUGGGAUCCA [G5U C84U], the self-cleavage was 0.219.

For the variant GGCCUGCAUGGUCCCAGCCUCCUCGCUGGCGCCGGCUGGGCAACAUUCCGAGGGGACCGUCCCCUCAGUAAUGGCGAAUGGGACCCA [G5U G67A], the self-cleavage worked out at 0.32.

As for GGCCUGCAUGGUCCCAGCCUCCUCGCUGGCGCCGGCUGGGCAACAUUCCGAGGGGACCGUCCCCUCCGUAAUGGCGAAUGGGACCCA [G5U G67C], the self-cleavage came to 0.582.

Turning to GGCCUGCAUGGUCCCAGCCUCCUCGCUGGCGCCGGCUGGGCAACAUUCCGAGGGGACCGUCCCCUCUGUAAUGGCGAAUGGGACCCA [G5U G67U], the self-cleavage amounted to 0.364.

For the variant GGCCUGCAUGGUCCCAGCCGCCUCGCUGGCGCCGGCUGGGCAACAUUCCGAGGGGACCGUCCCCUCGGUAAUGGCGAAUGGGACCCA [G5U U20G], the self-cleavage was found to be 0.111.

Consider GGCCUGCAUGGUCCCAGCCUCCUCGCUGGCGCCGGCUGGGCAACAUGCCGAGGGGACCGUCCCCUCGGUAAUGGCGAAUGGGACCCA [G5U U47G], for which the self-cleavage was found to be 0.222.

In the case of GGCCUGCAUGGUCCCAGCCUCCUCGCUGGCGCCGGCUGGGCAACAUUCCGAGGGGACCGUCCCAUCGGUAAUGGCGAAUGGGACCCA [G5U C64A], the self-cleavage worked out at 0.499.

Take GGCCUGCAUGGUCCCAGCCUCCUCGCUGGCGCCGGCUGGGCAAGAUUCCGAGGGGACCGUCCCCUCGGUAAUGGCGAAUGGGACCCA [G5U C44G]: the self-cleavage is 0.217.

Turning to GGCCUGCAUGGUCCCAGCCUCCUCGCUGGCGCCGGCUGGGCAAAAUUCCGAGGGGACCGUCCCCUCGGUAAUGGCGAAUGGGACCCA [G5U C44A], the self-cleavage was 0.119.

On to GGCCUGCAUGGUCCCAGCCUCCUCGCUGCCGCCGGCUGGGCAACAUUCCGAGGGGACCGUCCCCUCGGUAAUGGCGAAUGGGACCCA [G5U G29C], for which the self-cleavage was found to be 0.

In the case of GGCCUGCAUGGUCCCAGCCUCCUCGCUGGCGCCGGCUGGGCAACAUUCCGAGGCGACCGUCCCCUCGGUAAUGGCGAAUGGGACCCA [G5U G54C], the self-cleavage stood at 0.867.

Turning to GGCCUGCAUGGUCCCAGCCUCCUCGCUGGCGCCGGCUGUGCAACAUUCCGAGGGGACCGUCCCCUCGGUAAUGGCGAAUGGGACCCA [G5U G39U], the self-cleavage was determined as 0.136.

For GGCCUGCAUGGUCCCAGCCUCCUCGCUGGCGCCGGCUGGGCAACAUUCCGAGGGGACCGUCCCCUCGGUAAUGGCGAAUCGGACCCA [G5U G80C], the self-cleavage is 0.0811.

With GGCCUGCAUGGUCCCAGCCUCCUCGCUGGCCCCGGCUGGGCAACAUUCCGAGGGGACCGUCCCCUCGGUAAUGGCGAAUGGGACCCA [G5U G31C], the self-cleavage turned out to be 0.0723.

For the variant GGCCUGCAUGGUCCCAGCCUCCUCGCUGGCACCGGCUGGGCAACAUUCCGAGGGGACCGUCCCCUCGGUAAUGGCGAAUGGGACCCA [G5U G31A], the self-cleavage was determined as 0.135.
